Experimental data published in patent publication US11680298B2, “Method of identifying risk of cancer and therapeutic options” (Agency for Science, Technology and Research, priority 2016, dated 2023).
Values belong to the molecule of their own block, whether it stands above or below them.

Tests used:
[1] = molecular target: T1, IRAK1 (Homo sapiens, UniProt P51617); assay: Western blot of phospho-IRAK1 in breast cancer cells and patient-derived tumourspheres; format: cell-based; design: endogenous in cells; host or cells: MB468 and MB231 cells; PDX-derived tumourspheres; conditions: MCF10A, long-term treatment with recombinant protein for 10 days
T1 sequence (P51617 whole entry): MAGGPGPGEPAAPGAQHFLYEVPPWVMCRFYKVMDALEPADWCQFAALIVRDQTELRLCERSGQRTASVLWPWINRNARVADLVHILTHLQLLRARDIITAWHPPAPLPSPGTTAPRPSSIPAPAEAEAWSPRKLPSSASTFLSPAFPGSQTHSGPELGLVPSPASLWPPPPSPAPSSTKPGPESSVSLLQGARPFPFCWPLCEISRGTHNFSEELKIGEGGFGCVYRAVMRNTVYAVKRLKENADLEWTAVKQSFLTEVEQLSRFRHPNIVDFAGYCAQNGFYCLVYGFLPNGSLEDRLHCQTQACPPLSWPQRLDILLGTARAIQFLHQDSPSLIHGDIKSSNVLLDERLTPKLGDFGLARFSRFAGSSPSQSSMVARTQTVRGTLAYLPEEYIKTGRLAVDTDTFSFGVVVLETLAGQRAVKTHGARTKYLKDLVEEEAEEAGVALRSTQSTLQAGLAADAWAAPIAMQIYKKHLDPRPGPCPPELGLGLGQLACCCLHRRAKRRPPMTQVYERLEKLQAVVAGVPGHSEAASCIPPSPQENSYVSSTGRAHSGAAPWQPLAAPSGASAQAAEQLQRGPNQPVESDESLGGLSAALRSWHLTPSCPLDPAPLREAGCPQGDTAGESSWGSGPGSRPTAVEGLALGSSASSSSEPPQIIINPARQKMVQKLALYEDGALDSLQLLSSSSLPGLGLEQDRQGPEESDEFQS

[2] = molecular target: T1, IRAK1; assay: as above; format: cell-based; design: endogenous in cells; host or cells: MB468 and MB231 cells; PDX-derived tumourspheres
Method: Recombinant IL-1p (Cat no: 200-01B) was purchased from Peprotech (Rocky Hill, N.J.). Recombinant S100A7 (Cat no: pro-149), S100A8 (Cat no: pro-800) and S100A9 (Cat no: pro-814), were purchased from ProSpec (East Brunswick, N.J.). Cells were treated with recombinant proteins at stated concentration for 20 min before harvesting for western blot. Paclitaxel (Cat no: P-9600) was purchased from LC Lab (Woburn, Mass.).
(§1) All immunoblots shown in this specification represent at least two independent experiments. In brief, cells were washed with PBS and lysed in RIPA buffer supplemented with protease and phosphatase inhibitors and further sonicated using an XL2000 Microson Ultrasonice Processor (Misonix). Equal amounts of protein extract were separated on SDS-polyacrylamided gels and transferred to PVDF membranes. Membranes were further blocked with 5% milk or BSA, and then probed with the following antibodies: anti-IRAK1 was purchased from Santa Cruz Biotechnology (Santa Cruz, Calif.; sc-7883), anti-phospho-IRAK1 (T209) was purchased from Assay Biotech (Sunnyvale, Calif.; A1074), anti-JAK2 (Danvers, Mass.; #3230) and anti-phospho-JAK2 ([…]) (Danvers, Mass.: #3774) were purchased from Cell Signaling Technology, anti-actin was purchased from Sigma Aldrich CA; A5441). For protein extraction of xenograft tumours, snap frozen samples were resuspended in RIPA buffer supplemented with protease and phosphatase inhibitors and homogenized with QIAGEN TissueLyzer II as described by the manufacturer, followed by immunoblotting as described above.

[3] = tested on: K239S mutant cells (MB436, MB468); assay: Tumoursphere formation of K239S mutant IRAK1 cells with recombinant protein rescue; format: cell-based; conditions: recombinant protein added to culture medium of K239S mutant IRAK1 cells
Method: Mammosphere Formation Assay PDX-derived tumoursphere cells were trypsinized and passed through 40 μm cell strainer to achieve single cell suspensions. 3×10^4 cells were seeded in 6-well ultra-low attachment plates (Corning, N.Y.; CLS3471) in serum-free DMEM/F12 supplemented with N2 and B27 (Gibco, Grand Island, N.Y.), 20 ng/ml epidermal growth factor (MACS, Auburn, Calif.), 20 ng/ml basic fibroblast growth factor (MACS, Auburn, Calif.), 0.2 μM Thiazovivin ([…] Technologies, Vancouver, BC) and penicillin/streptomycin (Gibco, Carlsbad, Calif.). For breast cancer cell lines and MCF10A cell line, 3×10^4 cells were seeded in 6-well ultra-low attachment plates in Mammocult medium (Stem Cell Technologies, Vancouver, BC, Canada), supplemented with fresh hydrocortisone (0.5 μg/ml) and heparin (1:500). Mammospheres were maintained at 37° C. with 5% CO2 and topped up with medium every 3 days. After 7-9 days, mammospheres were stained with INT (2-(4-iodophenyl)-3-(4-nitrophenyl)-5-phenyl-2H-tetrazolium chloride, Sigma-Aldrich) and quantified. Imaging and quantification were done using GelCount apparatus and associated software (Oxford Optronix, Abingdon, UK). […] Cell Proliferation Assay […]

[4] = tested on: MCF10A; assay: Mammosphere formation assay, MCF10A; format: cell-based; conditions: long-term treatment with recombinant protein for 10 days
Method: (§2) Mammosphere Formation Assay PDX-derived tumoursphere cells were trypsinized and passed through 40 μm cell strainer to achieve single cell suspensions. 3×10^4 cells were seeded in 6-well ultra-low attachment plates (Corning, N.Y.; CLS3471) in serum-free DMEM/F12 supplemented with N2 and B27 (Gibco, Grand Island, N.Y.), 20 ng/ml epidermal growth factor (MACS, Auburn, Calif.), 20 ng/ml basic fibroblast growth factor (MACS, Auburn, Calif.), 0.2 μM Thiazovivin ([…] Technologies, Vancouver, BC) and penicillin/streptomycin (Gibco, Carlsbad, Calif.). For breast cancer cell lines and MCF10A cell line, 3×10^4 cells were seeded in 6-well ultra-low attachment plates in Mammocult medium (Stem Cell Technologies, Vancouver, BC, Canada), supplemented with fresh hydrocortisone (0.5 μg/ml) and heparin (1:500). Mammospheres were maintained at 37° C. with 5% CO2 and topped up with medium every 3 days. After 7-9 days, mammospheres were stained with INT (2-(4-iodophenyl)-3-(4-nitrophenyl)-5-phenyl-2H-tetrazolium chloride, Sigma-Aldrich) and quantified. Imaging and quantification were done using GelCount apparatus and associated software (Oxford Optronix, Abingdon, UK). […] Cell Proliferation Assay

[5] = tested on: tumourspheres from both cell lines and patient-derived samples; assay: S100A8/S100A9 recombinant protein rescue of pacritinib-treated tumourspheres; format: cell-based, human; conditions: recombinant protein 10 ng/ml added to culture medium; pacritinib 2.5 μM or 1 μM (method)
Method: as §2

[6] = molecular target: T2, JAK2 (Homo sapiens, UniProt O60674); assay: Western blot of phospho-JAK2 in breast cancer cells and patient-derived tumourspheres; format: cell-based; conditions: patient-derived tumourspheres, IL-1 treatment
T2 construct: endogenous in cells; host or cells: MB468 and MB231 cells; PDX-derived tumourspheres
T2 sequence (O60674 whole entry): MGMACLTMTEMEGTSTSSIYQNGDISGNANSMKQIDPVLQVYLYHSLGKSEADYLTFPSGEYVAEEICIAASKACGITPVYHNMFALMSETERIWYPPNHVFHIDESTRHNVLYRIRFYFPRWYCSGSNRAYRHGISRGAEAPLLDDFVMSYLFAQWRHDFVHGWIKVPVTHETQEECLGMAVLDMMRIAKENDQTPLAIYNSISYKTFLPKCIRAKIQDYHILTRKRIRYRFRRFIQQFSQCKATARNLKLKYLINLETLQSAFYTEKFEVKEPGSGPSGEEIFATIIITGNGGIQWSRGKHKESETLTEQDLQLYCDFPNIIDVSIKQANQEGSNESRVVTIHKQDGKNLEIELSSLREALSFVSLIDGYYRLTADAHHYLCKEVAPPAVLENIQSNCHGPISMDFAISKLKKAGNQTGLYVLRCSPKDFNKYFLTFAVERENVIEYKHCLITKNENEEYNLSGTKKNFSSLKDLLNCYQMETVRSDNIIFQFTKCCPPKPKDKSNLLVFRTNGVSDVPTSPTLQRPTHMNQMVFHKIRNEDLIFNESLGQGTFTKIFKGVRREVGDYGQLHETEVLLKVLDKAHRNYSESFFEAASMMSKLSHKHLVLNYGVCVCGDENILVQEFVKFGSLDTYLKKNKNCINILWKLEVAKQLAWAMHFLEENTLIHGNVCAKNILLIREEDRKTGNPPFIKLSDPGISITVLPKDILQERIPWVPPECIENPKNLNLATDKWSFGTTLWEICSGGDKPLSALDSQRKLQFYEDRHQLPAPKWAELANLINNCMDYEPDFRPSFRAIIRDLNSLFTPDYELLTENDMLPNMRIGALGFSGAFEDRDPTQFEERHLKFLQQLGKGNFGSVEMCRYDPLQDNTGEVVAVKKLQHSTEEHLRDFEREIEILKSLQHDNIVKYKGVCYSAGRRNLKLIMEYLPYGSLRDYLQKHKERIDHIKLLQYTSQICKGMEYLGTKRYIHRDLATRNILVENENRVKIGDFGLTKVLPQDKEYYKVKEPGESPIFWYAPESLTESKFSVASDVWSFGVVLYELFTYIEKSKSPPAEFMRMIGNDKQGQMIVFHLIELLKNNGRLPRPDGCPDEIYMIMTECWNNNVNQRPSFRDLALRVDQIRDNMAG
From the text: as §1

[7] = tested on: EL12-58 PDX tumours; assay: Neoadjuvant breast cancer PDX model of tumour recurrence; format: in vivo, NOD-SCID mice; conditions: after paclitaxel-induced regression and surgery; 20 mg/kg paclitaxel, 150 mg/kg pacritinib or both
[8] = MB231 cells, recombinant protein as low as 1 ng/ml

- IRAK1 phosphorylation [1]: increased IRAK1 phosphorylation
- IRAK1 phosphorylation [2, 8]: able to induce IRAK1 phosphorylation
Molecule: S100A9: Recombinant S100A9 protein purchased from ProSpec (Cat no: pro-814)
- rescue of tumoursphere growth [3]: able to rescue the tumoursphere growth
- mammosphere formation [4]: increased mammosphere formation
- rescue of pacritinib-induced tumoursphere growth inhibition [5]: effectively rescued pacritinib-induced growth inhibition

- JAK2 phosphorylation [6]: remarkably induced JAK2 phosphorylation
Molecule: IL-1p: Recombinant IL-1p (Cat no: 200-01B) purchased from Peprotech
- IRAK1 phosphorylation ([2]; patient-derived tumourspheres, IL-1 treatment): did not have an obvious effect on IRAK1 phosphorylation

The remaining lines, values behind:

Molecule: S100A8: Recombinant S100A8 protein purchased from ProSpec (Cat no: pro-800)
- IRAK1 phosphorylation [1]: increased IRAK1 phosphorylation
- IRAK1 phosphorylation [2, 8]: able to induce IRAK1 phosphorylation
- rescue of tumoursphere growth [3]: able to rescue the tumoursphere growth
- mammosphere formation [4]: increased mammosphere formation
- rescue of pacritinib-induced tumoursphere growth inhibition [5]: effectively rescued pacritinib-induced growth inhibition

Molecule: CC(=O)O[C@H]1C(=O)[C@@]2(C)[C@H]([C@H](OC(=O)c3ccccc3)[C@]3(O)C[C@H](OC(=O)[C@H](O)[C@@H](NC(=O)c4ccccc4)c4ccccc4)C(C)=C1C3(C)C)[C@]1(OC(C)=O)CO[C@@H]1C[C@@H]2O [paclitaxel]
- tumour regrowth after surgical removal of residual tumour [7]: slowed down

B1: S100A7: Recombinant S100A7 protein purchased from ProSpec (Cat no: pro-149) (protein, UniProt P31151 2-101, looked up)
Protein S100-A7: SNTQAERSIIGMIDMFHKYTRRDDKIEKPSLLTMMKENFPNFLSACDKKGTNYLADVFEKKDKNEDKKIDFSEFLSLLGDIATDYHKQSHGAAPCSGGSQ
- IRAK1 phosphorylation [2, 8]: able to induce IRAK1 phosphorylation
